Laboratory results published in patent EP4624499A1 (Immunotech Applied Science Limited, dated 2025).

B1: Ninth group of TCR (TCR, V domains shown)
V domain 1: EDQVTQSPEALRLQEGESSSLNCSYTVSGLRGLFWYRQDPGKGPEFLFTLYSAGEEKEKERLKATLTKKESFLHITAPKPEDSATYLCVITTSGTYKYIFGTGTRLKVLA
V domain 2: NAGVTQTPKFQVLKTGQSMTLQCAQDMNHNSMYWYRQDPGMGLRLIYYSASEGTTDKGEVPNGYNVSRLNKREFSLRLESAAPSQTSVYFCASTINTYEQYFGPGTRLTVTE
B2: Tenth group of TCR (TCR, V domains shown)
V domain 1: QTVTQSQPEMSVQEAETVTLSCTYDTSESDYYLFWYKQPPSRQMILVIRQEAYKQQNATENRFSVNFQKAAKSFSLKISDSQLGDAAMYFCAYRSFYTGANSKLTFGKGITLSVRP
V domain 2: DAGVTQSPTHLIKTRGQQVTLRCSPKSGHDTVSWYQQALGQGPQFIFQYYEEEERQRGNFPDRFSGHQFPNYSSELNVNALLLGDSALYLCASSLYGGPGDQPQHFGDGTRLSILE
B3: Ninth group of TCR (TCR, V domains shown)
Valpha: B1 V domain 1
Vbeta: NAGVTQTPKFQVLKTGQSMTLQCAQDMNHNSMYWYRQDPGMGLRLIYYSASEGTTDKGEVPNGYNVSRLNKREFSLRLESAAPSQTSVYFCASTINTYEQYFGPGTRLTVT
B4: Tenth group of TCR (TCR, V domains shown)
Valpha: AQTVTQSQPEMSVQEAETVTLSCTYDTSESDYYLFWYKQPPSRQMILVIRQEAYKQQNATENRFSVNFQKAAKSFSLKISDSQLGDAAMYFCAYRSFYTGANSKLTFGKGITLSVRP
Vbeta: DAGVTQSPTHLIKTRGQQVTLRCSPKSGHDTVSWYQQALGQGPQFIFQYYEEEERQRGNFPDRFSGHQFPNYSSELNVNALLLGDSALYLCASSLYGGPGDQPQHFGDGTRLSIL

Legend:
[1] = target: CMV pp65501-509 antigen complex on Caki-2-PP65 target cells (human; human cytomegalovirus, UniProt P61769 21-119); experiment: cell-based or functional assay
[2] = target: T1, CMV pp65 peptide on HLA-A*11:01 (human); experiment: multimer staining
T1 peptide: ATVQGQNLK

Row | Binder | killing activity at 4 h (RTCA), Caki-2-PP65 target cells, effector-to-target ratio 1:1 [1] | killing activity at 4 h (RTCA), Caki-2-PP65 target cells, effector-to-target ratio 5:1 [1] | killing activity at 4 h (RTCA), Caki-2-PP65 target cells, effector-to-target ratio 10:1 [1] | killing activity at 4 h (RTCA), Caki-2-PP65 target cells, effector-to-target ratio 5:1 (ratio cell blank in this row, taken from r7) [1] | binding result [2]
1 | B1 | 7.1% | 44.5% | 61.5% |  | 
2 | B2 | 23.5% |  | 67.4% | 61.2% | 
3 | B3 |  |  |  |  | recognises
4 | B4 |  |  |  |  | recognises
